# From publication PMC9974672, “Luteolin protects DYT-PRKRA cells from apoptosis by suppressing PKR activation” (Frontiers in Pharmacology, 2023)
# Molecular target: T1, PKR fused to the GAL4 DNA-binding domain (mammalian two-hybrid bait) (UniProt P19525 1-551)
# T1 construct: also called GAL4-DBD PKR; source: mammalian two-hybrid fusion, transfected cells (COS-1 by the methods, HeLa by the legends)
# Experiment: two-hybrid; mammalian two-hybrid, PKR as GAL4-DBD fusion (bait), PACT proteins as VP16-AD fusions (preys), pG5Luc firefly luciferase reporter normalised to pRL-Null; cells untreated, no stress
# Conditions: partners not purified
# T1 sequence (P19525 whole entry, the tested form may be a part): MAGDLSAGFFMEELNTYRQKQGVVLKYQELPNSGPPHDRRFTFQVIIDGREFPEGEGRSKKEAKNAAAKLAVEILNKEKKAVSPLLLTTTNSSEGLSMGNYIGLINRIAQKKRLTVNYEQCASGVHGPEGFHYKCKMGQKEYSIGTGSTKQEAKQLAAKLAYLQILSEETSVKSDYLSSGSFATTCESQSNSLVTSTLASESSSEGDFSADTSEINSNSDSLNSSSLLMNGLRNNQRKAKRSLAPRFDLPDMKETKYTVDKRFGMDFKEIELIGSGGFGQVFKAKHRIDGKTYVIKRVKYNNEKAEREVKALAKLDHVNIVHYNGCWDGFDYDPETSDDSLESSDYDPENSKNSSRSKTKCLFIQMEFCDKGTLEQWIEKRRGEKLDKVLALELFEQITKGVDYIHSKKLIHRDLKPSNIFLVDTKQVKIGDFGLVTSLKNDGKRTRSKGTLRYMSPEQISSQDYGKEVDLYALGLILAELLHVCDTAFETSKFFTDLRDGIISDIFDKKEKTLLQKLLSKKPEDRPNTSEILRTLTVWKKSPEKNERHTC
row,Binder,fold interaction against wt PACT-PKR (two-hybrid luciferase) [fold]
1,"DD (S246D, S287D) phosphomimic mutant PACT fused to the VP16 activation domain (mammalian two-hybrid prey) (natural protein, UniProt O75569 1-313, looked up, PACT ORF with serines 246 and 287 replaced by aspartic acids, in pVP16AASV19N; also called DD PACT; DD mutant; source: mammalian two-hybrid fusion, transfected cells (COS-1 by the methods, HeLa by the legends)) MSQSRHRAEAPPLEREDSGTFSLGKMITAKPGKTPIQVLHEYGMKTKNIPVYECERSDVQIHVPTFTFRVTVGDITCTGEGTSKKLAKHRAAEAAINILKANASICFAVPDPLMPDPSKQPKNQLNPIGSLQELAIHHGWRLPEYTLSQEGGPAHKREYTTICRLESFMETGKGASKKQAKRNAAEKFLAKFSNISPENHISLTNVVGHSLGCTWHSLRNSPGEKINLLKRSLLSIPNTDYIQLLDEIAKEQGFNITYLDIDELSANGQYQCLAELSTSPITVCHGDGISCGNAQSDAAHNALQYLKIIAERK",> 2
2,"P222L PACT fused to the VP16 activation domain (mammalian two-hybrid prey) (natural protein, UniProt O75569 1-313, looked up, PACT ORF with the DYT-PRKRA patient mutation P222L, in pVP16AASV19N; Plasmid described in Vaughn et al., 2015; Burnett et al., 2020; also called P222L mutant; source: mammalian two-hybrid fusion, transfected cells (COS-1 by the methods, HeLa by the legends)) MSQSRHRAEAPPLEREDSGTFSLGKMITAKPGKTPIQVLHEYGMKTKNIPVYECERSDVQIHVPTFTFRVTVGDITCTGEGTSKKLAKHRAAEAAINILKANASICFAVPDPLMPDPSKQPKNQLNPIGSLQELAIHHGWRLPEYTLSQEGGPAHKREYTTICRLESFMETGKGASKKQAKRNAAEKFLAKFSNISPENHISLTNVVGHSLGCTWHSLRNSLGEKINLLKRSLLSIPNTDYIQLLSEIAKEQGFNITYLDIDELSANGQYQCLAELSTSPITVCHGSGISCGNAQSDAAHNALQYLKIIAERK",~3
